From the RNAGym collection of RNA variant scans (doi:10.1021/acssynbio.7b00057)

B1: Pistol ribozyme (parent)
chain: GGGUCGUUGUUCCAUAAUCGCGUGGAUAUGGCACGCAAGUUUCUACCGGGCACCGUAAAUGUCCGACUGGAGCCGUUCGGGCGGCUAUAAACAGACCUCAGGCCCGAAGCGUGGCGGCACCUGCCGCCGGUGGUAAAAAAGAUCGGAAGAGCACACGUCU

Variants of: B1
Assay: aptazyme ON/OFF ratio, guanine; higher = stronger switching; co-transcriptional cleavage with and without guanine

| Variant | aptazyme ON/OFF ratio |
| --- | --- |
| GGGUCGUUCGUGUAUAAUCGCGUGGAUAUGGCACGCAAGUUUCUACCGGGCACCGUAAAUGUCCGACUGGAGCCGUUCGGGCGGCUAUAAACAGACCUCAGGCCCGAAGCGUGGCGGCACCUGCCGCCGGUGGUAAAAAAGAUCGGAAGAGCACACGUCU [G9C U10G C12G C13U] | 1.05 |
| GGGUCGUUCGUGGAUAAUCGCGUGGAUAUGGCACGCAAGUUUCUACCGGGCACCGUAAAUGUCCGACUGGAGCCGUUCGGGCGGCUAUAAACAGACCUCAGGCCCGAAGCGUGGCGGCACCUGCCGCCGGUGGUAAAAAAGAUCGGAAGAGCACACGUCU [G9C U10G C12G C13G] | 1.14 |
| GGGUCGUUCGUGAAUAAUCGCGUGGAUAUGGCACGCAAGUUUCUACCGGGCACCGUAAAUGUCCGACUGGAGCCGUUCGGGCGGCUAUAAACAGACCUCAGGCCCGAAGCGUGGCGGCACCUGCCGCCGGUGGUAAAAAAGAUCGGAAGAGCACACGUCU [G9C U10G C12G C13A] | 1.22 |
| GGGUCGUUCCGGAAUAAUCGCGUGGAUAUGGCACGCAAGUUUCUACCGGGCACCGUAAAUGUCCGACUGGAGCCGUUCGGGCGGCUAUAAACAGACCUCAGGCCCGAAGCGUGGCGGCACCUGCCGCCGGUGGUAAAAAAGAUCGGAAGAGCACACGUCU [G9C U10C U11G C12G C13A] | 1.04 |
| GGGUCGUUCCGGUAUAAUCGCGUGGAUAUGGCACGCAAGUUUCUACCGGGCACCGUAAAUGUCCGACUGGAGCCGUUCGGGCGGCUAUAAACAGACCUCAGGCCCGAAGCGUGGCGGCACCUGCCGCCGGUGGUAAAAAAGAUCGGAAGAGCACACGUCU [G9C U10C U11G C12G C13U] | 1.11 |
| GGGUCGUUCCGGGAUAAUCGCGUGGAUAUGGCACGCAAGUUUCUACCGGGCACCGUAAAUGUCCGACUGGAGCCGUUCGGGCGGCUAUAAACAGACCUCAGGCCCGAAGCGUGGCGGCACCUGCCGCCGGUGGUAAAAAAGAUCGGAAGAGCACACGUCU [G9C U10C U11G C12G C13G] | 1.13 |
| GGGUCGUUCCCUUAUAAUCGCGUGGAUAUGGCACGCAAGUUUCUACCGGGCACCGUAAAUGUCCGACUGGAGCCGUUCGGGCGGCUAUAAACAGACCUCAGGCCCGAAGCGUGGCGGCACCUGCCGCCGGUGGUAAAAAAGAUCGGAAGAGCACACGUCU [G9C U10C U11C C12U C13U] | 1.03 |
| GGGUCGUUCCCUGAUAAUCGCGUGGAUAUGGCACGCAAGUUUCUACCGGGCACCGUAAAUGUCCGACUGGAGCCGUUCGGGCGGCUAUAAACAGACCUCAGGCCCGAAGCGUGGCGGCACCUGCCGCCGGUGGUAAAAAAGAUCGGAAGAGCACACGUCU [G9C U10C U11C C12U C13G] | 1.01 |
| GGGUCGUUCCCUAAUAAUCGCGUGGAUAUGGCACGCAAGUUUCUACCGGGCACCGUAAAUGUCCGACUGGAGCCGUUCGGGCGGCUAUAAACAGACCUCAGGCCCGAAGCGUGGCGGCACCUGCCGCCGGUGGUAAAAAAGAUCGGAAGAGCACACGUCU [G9C U10C U11C C12U C13A] | 1.02 |
| GGGUCGUUCGUAAAUAAUCGCGUGGAUAUGGCACGCAAGUUUCUACCGGGCACCGUAAAUGUCCGACUGGAGCCGUUCGGGCGGCUAUAAACAGACCUCAGGCCCGAAGCGUGGCGGCACCUGCCGCCGGUGGUAAAAAAGAUCGGAAGAGCACACGUCU [G9C U10G C12A C13A] | 1.15 |
| GGGUCGUUCGUAUAUAAUCGCGUGGAUAUGGCACGCAAGUUUCUACCGGGCACCGUAAAUGUCCGACUGGAGCCGUUCGGGCGGCUAUAAACAGACCUCAGGCCCGAAGCGUGGCGGCACCUGCCGCCGGUGGUAAAAAAGAUCGGAAGAGCACACGUCU [G9C U10G C12A C13U] | 1.32 |
| GGGUCGUUCGUAGAUAAUCGCGUGGAUAUGGCACGCAAGUUUCUACCGGGCACCGUAAAUGUCCGACUGGAGCCGUUCGGGCGGCUAUAAACAGACCUCAGGCCCGAAGCGUGGCGGCACCUGCCGCCGGUGGUAAAAAAGAUCGGAAGAGCACACGUCU [G9C U10G C12A C13G] | 1.11 |
| GGGUCGUUCGUCCAUAAUCGCGUGGAUAUGGCACGCAAGUUUCUACCGGGCACCGUAAAUGUCCGACUGGAGCCGUUCGGGCGGCUAUAAACAGACCUCAGGCCCGAAGCGUGGCGGCACCUGCCGCCGGUGGUAAAAAAGAUCGGAAGAGCACACGUCU [G9C U10G] | 2.17 |
| GGGUCGUUCCGCUAUAAUCGCGUGGAUAUGGCACGCAAGUUUCUACCGGGCACCGUAAAUGUCCGACUGGAGCCGUUCGGGCGGCUAUAAACAGACCUCAGGCCCGAAGCGUGGCGGCACCUGCCGCCGGUGGUAAAAAAGAUCGGAAGAGCACACGUCU [G9C U10C U11G C13U] | 1.08 |
| GGGUCGUUCCGCGAUAAUCGCGUGGAUAUGGCACGCAAGUUUCUACCGGGCACCGUAAAUGUCCGACUGGAGCCGUUCGGGCGGCUAUAAACAGACCUCAGGCCCGAAGCGUGGCGGCACCUGCCGCCGGUGGUAAAAAAGAUCGGAAGAGCACACGUCU [G9C U10C U11G C13G] | 1.08 |
| GGGUCGUUCCGCAAUAAUCGCGUGGAUAUGGCACGCAAGUUUCUACCGGGCACCGUAAAUGUCCGACUGGAGCCGUUCGGGCGGCUAUAAACAGACCUCAGGCCCGAAGCGUGGCGGCACCUGCCGCCGGUGGUAAAAAAGAUCGGAAGAGCACACGUCU [G9C U10C U11G C13A] | 1.06 |
| GGGUCGUUCGUCAAUAAUCGCGUGGAUAUGGCACGCAAGUUUCUACCGGGCACCGUAAAUGUCCGACUGGAGCCGUUCGGGCGGCUAUAAACAGACCUCAGGCCCGAAGCGUGGCGGCACCUGCCGCCGGUGGUAAAAAAGAUCGGAAGAGCACACGUCU [G9C U10G C13A] | 1.28 |
| GGGUCGUUCCCCAAUAAUCGCGUGGAUAUGGCACGCAAGUUUCUACCGGGCACCGUAAAUGUCCGACUGGAGCCGUUCGGGCGGCUAUAAACAGACCUCAGGCCCGAAGCGUGGCGGCACCUGCCGCCGGUGGUAAAAAAGAUCGGAAGAGCACACGUCU [G9C U10C U11C C13A] | 1.02 |

| Variant | aptazyme ON/OFF ratio |
| --- | --- |
| GGGUCGUUCCCCGAUAAUCGCGUGGAUAUGGCACGCAAGUUUCUACCGGGCACCGUAAAUGUCCGACUGGAGCCGUUCGGGCGGCUAUAAACAGACCUCAGGCCCGAAGCGUGGCGGCACCUGCCGCCGGUGGUAAAAAAGAUCGGAAGAGCACACGUCU [G9C U10C U11C C13G] | 1.03 |
| GGGUCGUUCCCCUAUAAUCGCGUGGAUAUGGCACGCAAGUUUCUACCGGGCACCGUAAAUGUCCGACUGGAGCCGUUCGGGCGGCUAUAAACAGACCUCAGGCCCGAAGCGUGGCGGCACCUGCCGCCGGUGGUAAAAAAGAUCGGAAGAGCACACGUCU [G9C U10C U11C C13U] | 1.02 |
| GGGUCGUUCCGCCAUAAUCGCGUGGAUAUGGCACGCAAGUUUCUACCGGGCACCGUAAAUGUCCGACUGGAGCCGUUCGGGCGGCUAUAAACAGACCUCAGGCCCGAAGCGUGGCGGCACCUGCCGCCGGUGGUAAAAAAGAUCGGAAGAGCACACGUCU [G9C U10C U11G] | 1.41 |
| GGGUCGUUCCGACAUAAUCGCGUGGAUAUGGCACGCAAGUUUCUACCGGGCACCGUAAAUGUCCGACUGGAGCCGUUCGGGCGGCUAUAAACAGACCUCAGGCCCGAAGCGUGGCGGCACCUGCCGCCGGUGGUAAAAAAGAUCGGAAGAGCACACGUCU [G9C U10C U11G C12A] | 1.03 |
| GGGUCGUUCCGGCAUAAUCGCGUGGAUAUGGCACGCAAGUUUCUACCGGGCACCGUAAAUGUCCGACUGGAGCCGUUCGGGCGGCUAUAAACAGACCUCAGGCCCGAAGCGUGGCGGCACCUGCCGCCGGUGGUAAAAAAGAUCGGAAGAGCACACGUCU [G9C U10C U11G C12G] | 1.09 |
| GGGUCGUUCCGUCAUAAUCGCGUGGAUAUGGCACGCAAGUUUCUACCGGGCACCGUAAAUGUCCGACUGGAGCCGUUCGGGCGGCUAUAAACAGACCUCAGGCCCGAAGCGUGGCGGCACCUGCCGCCGGUGGUAAAAAAGAUCGGAAGAGCACACGUCU [G9C U10C U11G C12U] | 1.07 |
| GGGUCGUUCCGAUAUAAUCGCGUGGAUAUGGCACGCAAGUUUCUACCGGGCACCGUAAAUGUCCGACUGGAGCCGUUCGGGCGGCUAUAAACAGACCUCAGGCCCGAAGCGUGGCGGCACCUGCCGCCGGUGGUAAAAAAGAUCGGAAGAGCACACGUCU [G9C U10C U11G C12A C13U] | 1.02 |
| GGGUCGUUCCGAGAUAAUCGCGUGGAUAUGGCACGCAAGUUUCUACCGGGCACCGUAAAUGUCCGACUGGAGCCGUUCGGGCGGCUAUAAACAGACCUCAGGCCCGAAGCGUGGCGGCACCUGCCGCCGGUGGUAAAAAAGAUCGGAAGAGCACACGUCU [G9C U10C U11G C12A C13G] | 1.03 |
| GGGUCGUUCCGAAAUAAUCGCGUGGAUAUGGCACGCAAGUUUCUACCGGGCACCGUAAAUGUCCGACUGGAGCCGUUCGGGCGGCUAUAAACAGACCUCAGGCCCGAAGCGUGGCGGCACCUGCCGCCGGUGGUAAAAAAGAUCGGAAGAGCACACGUCU [G9C U10C U11G C12A C13A] | 1.04 |
| GGGUCGUUCGUGCAUAAUCGCGUGGAUAUGGCACGCAAGUUUCUACCGGGCACCGUAAAUGUCCGACUGGAGCCGUUCGGGCGGCUAUAAACAGACCUCAGGCCCGAAGCGUGGCGGCACCUGCCGCCGGUGGUAAAAAAGAUCGGAAGAGCACACGUCU [G9C U10G C12G] | 1.19 |
| GGGUCGUUCGUACAUAAUCGCGUGGAUAUGGCACGCAAGUUUCUACCGGGCACCGUAAAUGUCCGACUGGAGCCGUUCGGGCGGCUAUAAACAGACCUCAGGCCCGAAGCGUGGCGGCACCUGCCGCCGGUGGUAAAAAAGAUCGGAAGAGCACACGUCU [G9C U10G C12A] | 1.3 |
| GGGUCGUUCGUUCAUAAUCGCGUGGAUAUGGCACGCAAGUUUCUACCGGGCACCGUAAAUGUCCGACUGGAGCCGUUCGGGCGGCUAUAAACAGACCUCAGGCCCGAAGCGUGGCGGCACCUGCCGCCGGUGGUAAAAAAGAUCGGAAGAGCACACGUCU [G9C U10G C12U] | 1.47 |
| GGGUCGUUCCGUUAUAAUCGCGUGGAUAUGGCACGCAAGUUUCUACCGGGCACCGUAAAUGUCCGACUGGAGCCGUUCGGGCGGCUAUAAACAGACCUCAGGCCCGAAGCGUGGCGGCACCUGCCGCCGGUGGUAAAAAAGAUCGGAAGAGCACACGUCU [G9C U10C U11G C12U C13U] | 1.06 |
| GGGUCGUUCCGUGAUAAUCGCGUGGAUAUGGCACGCAAGUUUCUACCGGGCACCGUAAAUGUCCGACUGGAGCCGUUCGGGCGGCUAUAAACAGACCUCAGGCCCGAAGCGUGGCGGCACCUGCCGCCGGUGGUAAAAAAGAUCGGAAGAGCACACGUCU [G9C U10C U11G C12U C13G] | 1.05 |
| GGGUCGUUCCGUAAUAAUCGCGUGGAUAUGGCACGCAAGUUUCUACCGGGCACCGUAAAUGUCCGACUGGAGCCGUUCGGGCGGCUAUAAACAGACCUCAGGCCCGAAGCGUGGCGGCACCUGCCGCCGGUGGUAAAAAAGAUCGGAAGAGCACACGUCU [G9C U10C U11G C12U C13A] | 1.04 |
| GGGUCGUUCGUUAAUAAUCGCGUGGAUAUGGCACGCAAGUUUCUACCGGGCACCGUAAAUGUCCGACUGGAGCCGUUCGGGCGGCUAUAAACAGACCUCAGGCCCGAAGCGUGGCGGCACCUGCCGCCGGUGGUAAAAAAGAUCGGAAGAGCACACGUCU [G9C U10G C12U C13A] | 1.15 |
| GGGUCGUUCGUUGAUAAUCGCGUGGAUAUGGCACGCAAGUUUCUACCGGGCACCGUAAAUGUCCGACUGGAGCCGUUCGGGCGGCUAUAAACAGACCUCAGGCCCGAAGCGUGGCGGCACCUGCCGCCGGUGGUAAAAAAGAUCGGAAGAGCACACGUCU [G9C U10G C12U C13G] | 1.15 |
| GGGUCGUUCGUUUAUAAUCGCGUGGAUAUGGCACGCAAGUUUCUACCGGGCACCGUAAAUGUCCGACUGGAGCCGUUCGGGCGGCUAUAAACAGACCUCAGGCCCGAAGCGUGGCGGCACCUGCCGCCGGUGGUAAAAAAGAUCGGAAGAGCACACGUCU [G9C U10G C12U C13U] | 1.22 |
